Here are results for two substances from PMC3927398.

As usually defined, the Kd is the constant that tells how readily two partners part at equilibrium. High values mean weaker binding, low ones tighter binding.

Assay [1] deals with MYO19-1IQ (N-terminal FLAG-tagged human MYO19, motor domain and one IQ motif, amino acids 2-787) (human) (UniProt Q96H55). Briefly: co-purification.
The target in assay [2] is actin filaments (F-actin) from rabbit skeletal muscle, phalloidin-stabilized (rabbit) (UniProt P68135). Briefly: co-sedimentation.

Turning to “calmodulin (from UniProt P0DP23 1-149) (natural protein)”, the stoichiometry N (CaM/MYO19-1IQ) in assay [1] amounted to 1.1.
Regarding “MYO19-1IQ with bound calmodulin light chain (from UniProt Q96H55-1 2-787; P0DP23 1-149) (complex)”, in assay [2], the Kd turned out to be 1.2 µM and the fraction bound at 5 μM actin without ATP was found to be 0.8.
